{"source": "patent US20080242590A1", "about": "“New Method 706” (ASTRAZENECA AB, priority 2007, published 2008)", "molecules": {"B1": {"name": "Fc-Neprilysin: extracellular domain of human Neprilysin fused to the human IgG2 Fc domain (including hinge), Fc at N-terminus; SEQ ID NO 11 (protein)", "chain": "ERKCCVECPPCPAPPVAGPSVFLFPPKPKDTLMISRTPEVTCVVVDVSHEDPEVQFNWYVDGVEVHNAKTKPREEQFNSTFRVVSVLTVVHQDWLNGKEYKCKVSNKGLPAPIEKTISKTKGQPREPQVYTLPPSREEMTKNQVSLTCLVKGFYPSDIAVEWESNGQPENNYKTTPPMLDSDGSFFLYSKLTVDKSRWQQGNVFSCSVMHEALHNHYTQKSLSLSPGKYDDGICKSSDCIKSAARLIQNMDATTEPCTDFFKYACGGWLKRNVIPETSSRYGNFDILRDELEVVLKDVLQEPKTEDIVAVQKAKALYRSCINESAIDSRGGEPLLKLLPDIYGWPVATENWEQKYGASWTAEKAIAQLNSKYGKKVLINLFVGTDDKNSVNHVIHIDQPRLGLPSRDYYECTGIYKEACTAYVDFMISVARLIRQEERLPIDENQLALEMNKVMELEKEIANATAKPEDRNDPMLLYNKMTLAQIQNNFSLEINGKPFSWLNFTNEIMSTVNISITNEEDVVVYAPEYLTKLKPILTKYSARDLQNLMSWRFIMDLVSSLSRTYKESRNAFRKALYGTTSETATWRRCANYVNGNMENAVGRLYVEAAFAGESKHVVEDLIAQIREVFIQTLDDLTWMDAETKKRAEEKALAIKERIGYPDDIVSNDNKLNNEYLELNYKEDEYFENIIQNLKFSQSKQLKKLREKVDKDEWISGAAVVNAFYSSGRNQIVFPAGILQPPFFSAQQSNSLNYGGIGMVIGHEITHGFDDNGRNFNKDGDLVDWWTQQSASNFKEQSQCMVYQYGNFSWDLAGGQHLNGINTLGENIADNGGLGQAYRAYQNYIKKNGEEKLLPGLDLNHKQLFFLNFAQVWCGTYRPEYAVNSIKTDVHSPGNFRIIGTLQNSAEFSEAFHCRKNSYMNPEKKCRVW"}}, "key": {"[1]": {"test_system": "fluorogenic peptide substrate V—Mca-Arg-Pro-Gly-Phe-Ser-Ala-Phe-Lys(Dnp)-OH", "assay": "Neprilysin enzyme activity FRET assay, purified protein", "assay_type": "biochemical", "conditions": "purified fusion protein", "protocol": "The Neprilysin enzymatic activity was determined in a fluorescence resonance energy transfer (FRET) assay. Recombinant Human Neprilysin (R&D Systems), culture medium from Neprilysin or Fc-Neprilysin producing cells (AZ Sodertalje) or purified Neprilysin or Fc-Neprilysin was added into 96-well plate containing 10 μM of fluorogenic peptide substrate V—Mca-Arg-Pro-Gly-Phe-Ser-Ala-Phe-Lys(Dnp)-OH (R&D Systems). The final concentration of the control recombinant human Neprilysin was 0.1 or 0.25 μg/ml. 10 μM of Neprilysin inhibitor phosphoramidone (BIOMOL) was added into some wells in order to control the specificity of the signal in the assay and verify the specific Neprilysin activity. Following addition of all components to wells, plate was immediately placed into a fluorescent plate reader (Ascent) and signal was recorded for every minute for 20 minutes at the excitation 340 nm and emission 405 nm. The activity of enzyme was evaluated by calculating the velocity of reaction−Slope coefficient=ΣΔRFU/Δt. In order to compare the specific activity of the commercial recombinant Neprilysin and Fc-Neprilysin fusion protein, we introduced the specific activity coefficient, which is calculated according to this formula: Specific activity=slope coefficient/pmol of Neprilysin or monomer of Fc-Neprilysin in assay. […]"}, "soluble Aβ40": {"test_system": "soluble Aβ40", "assay": "Soluble Aβ40 in plasma after acute i.v. treatment (Example 23)", "assay_type": "in vivo, APPSWE-transgenic mice", "protocol": "The objective with this study was to evaluate the time and dose-response effect of Fc-Nep in plasma of female APPSWE-tg mice after acute intraveneous treatment. The specific purpose is to find an effect on plasma Aβ40 and Aβ42. The γ-secretase inhibitor M-550426 is included as a reference compound.\n25-31 weeks old female APPSWE-transgenic mice (10 mice/group) received vehicle or the Fc-Nep at 1 or 5 mg/kg as a single intravenous injections. As a reference compound, 300 μmol/kg of the γ-secretase inhibitor M-550426 was used and these animals was treated in 3 hours (4 mice). […] Blood was sampled from vehicle- and compound-treated animals at 1.5 and 3 hours after dose. Blood was withdrawn from anaesthetized mice by heart puncture into pre-chilled microtainer tubes containing EDTA. Blood samples were immediately put on ice prior to centrifugation. Plasma was prepared by centrifugation for 10 minutes at approximately 3000×g at +4° C. within 20 minutes from sampling. After blood sampling, mice were terminated. Aβ40 and Aβ42 levels in plasma were analyzed by commercial ELISA kit obtained from Biosource and Innogenetics, respectively."}, "mouse Aβ40": {"test_system": "mouse Aβ40", "assay": "Mouse Aβ40 in plasma, time and dose response 1.5 and 3 hours (Example 24)", "assay_type": "in vivo, C57BL/6 mice", "protocol": "The objective with this study was to evaluate the time and dose-response effect of hFc-Nep in plasma of female C57BL/6 mice after an acute treatment. The specific purpose is to find an effect on plasma Aβ40 and to correlate effect to exposure level of hFc-Nep in plasma. The γ-secretase inhibitor M-550426 is included as a positive control.\n13 weeks old female C57BL/6 mice (10 mice/group) received vehicle or hFc-Nep at 1 or 5 mg/kg as a single intravenous injection. M-550426 was administrated per orally at 300 μmol/kg 3 hours before termination. A blank group was also included in the study.\nBlood was sampled from vehicle- and compound-treated animals at 1.5 and 3 hours after dose. Blood was withdrawn from anaesthetized mice by heart puncture into pre-chilled microtainer tubes containing EDTA. Blood samples were immediately put on ice prior to centrifugation. Plasma was prepared by centrifugation for 10 minutes at approximately 3000×g at +4° C. within 20 minutes from sampling. After blood sampling, mice were terminated. […] Mouse Aβ40 levels in plasma were analysed by commercial ELISA kit obtained from Biosource. The concentrations of Fc-Nep in plasma and in the formulations were assayed according to the procedures described in Example 27."}, "[2]": {"assay": "Plasma exposure (Example 25)", "assay_type": "in vivo, C57BL/6 mice", "conditions": "for Mean plasma exposure: 5 mg/kg i.v.", "protocol": "20-21 weeks old female C57BL/6 mice (8 mice/group) received vehicle or hFc-Nep at 5 mg/kg as a single intravenous injection and Aβ40 was analysed at different time points after injection (between 1.5-168 hours, i.e., up to 1 week). The γ-secretase inhibitor M-550426 was given per orally and the animals were treated for 3 hours. A blank group was also included in the study. […] Blood collection, plasma processing and measurement of mouse Aβ40 levels in plasma were basically as described in Example 27."}, "amyloid β 1-40": {"test_system": "amyloid β 1-40", "assay": "Degradation of Aβ 1-40 in APPswe-tg mouse plasma pool (Example 28)", "assay_type": "biochemical", "conditions": "room temperature, 1 hour", "protocol": "Mouse plasma collected from 9 animals was stored at −70° C. Plasma was thawed and pooled just before the experiment. Aβ 1-40 and 1-42 in plasma pool was degraded by human Fc-Nep or mouse Fc-Nep with corresponding vehicles (50 mM Tris-HCl, 150 mM NaCl pH 7.5). […] The enzymatic reaction was stopped by adding Phosphoramidone (10 μM final concentration).\nAfter degradation, before concentration of amyloid β 1-40 in tg-mouse plasma pool was measured using ELISA kit (Biosource; KHB3481), the plasma samples were diluted 20 times in standard diluent buffer, according to manufacturers instructions."}}}
{"molecule": "B1", "values": [{"measurement": "Specific activity (slope coefficient/pmol)", "setting": "[1]", "result": 14.1}, {"measurement": "Change in plasma Aβ40", "setting": "soluble Aβ40; 1 and 5 mg/kg i.v., 3 hours after dose", "result": "No significant changes"}, {"measurement": "Reduction of soluble Aβ40 in plasma compared to vehicle", "setting": "soluble Aβ40; 1 or 5 mg/kg i.v., 1.5 hours after dose, P<0.05", "result": "approximately 20%"}, {"measurement": "Reduction of mouse Aβ40 in plasma compared to vehicle", "setting": "mouse Aβ40; 1 mg/kg i.v., 1.5 hours, p=0.1638", "result": 17, "unit": "%"}, {"measurement": "Reduction of mouse Aβ40 in plasma compared to vehicle", "setting": "mouse Aβ40; 1 mg/kg i.v., 3 hours, p<0.005", "result": 36, "unit": "%"}, {"measurement": "Reduction of mouse Aβ40 in plasma compared to vehicle", "setting": "mouse Aβ40; 5 mg/kg i.v., 1.5 hours, p<0.0001", "result": 76, "unit": "%"}, {"measurement": "Reduction of mouse Aβ40 in plasma compared to vehicle", "setting": "mouse Aβ40; 5 mg/kg i.v., 3 hours, p<0.0001", "result": 72, "unit": "%"}, {"measurement": "Mean plasma exposure", "setting": "[2]; 1 week (168 hours)", "result": 38, "unit": "µg/mL"}, {"measurement": "Mean plasma exposure", "setting": "[2]; 1.5 hours", "result": 87, "unit": "µg/mL"}, {"measurement": "half-life in mice", "setting": "[2]; 5 mg/kg single i.v.", "result": "considerably long"}, {"measurement": "Degradation of amyloid β 1-40 compared to plasma without treatment", "setting": "amyloid β 1-40; highest concentration 100 μg/ml", "result": 71, "unit": "%"}, {"measurement": "EC50", "setting": "amyloid β 1-40", "result": 470, "unit": "nM"}]}
